Source: US20230310621A1, “COMPLEXES FOR THE DELIVERY OF PROTEINACEOUS AGENTS” (priority 2020, published 2023)

Legend:
[1] = Ultrafiltration of PAEC; particle recovery by light scattering, free SDS by HPLC-ELSD; type: physicochemical; conditions: filtrate fraction of ultrafiltration
Description: The fraction of SDS under a free form, i.e. not associated to the PAECs, was determined on the following composition: P24/CpG/SDS/DA002: 200/80/200/350 μg/mL. This analysis was done after separation of the PAECs from free SDS, using ultrafiltration. The free SDS concentration in the permeate fraction was then determined by HPLC using an AZorbax 80A Extend-C18 column. 3.0×150 mm, 3.5 μm from Agilent and an Evaporative Light Scattering Detector (ELSD) Alltech® Model 3300.
Particle recovery has been estimated from the mean light scattering of the permeate fraction of ultrafiltration. The particle recovery percentage was measured as the mean and SD of light scattering count rate of 3 measurements; the SDS recovery percentage was measured as mean and SD of 2 HPLC analysis.

[2] = Circular dichroism, % helix in human insulin on storage at 4° C.; type: physicochemical
Description: From these CD spectra we have calculated the % of helix in human insulin overtime of storage at 4° C. on 12-day period. […] The CD spectra were taken […].
The CD analysis was carried out after storing the PAEC for 1, 6 or 12 days at 4° C.

| Compound | SDS recovery (wt %) ([1]; 2 HPLC analysis) | Particle recovery (Id %) ([1]; mean and SD of 3 measurements) | percentage helix content in human insulin, Day 1 ([2]; stored 1 day at 4° C.) | percentage helix content in human insulin, Day 6 ([2]; stored 6 days at 4° C.) | percentage helix content in human insulin, Day 12 ([2]; stored 12 days at 4° C.) |
| --- | --- | --- | --- | --- | --- |
| CCCCCCCCCCCCOS(=O)(=O)[O-].[Na+] [Free SDS, sodium dodecyl sulphate] | 100.0 wt % | 0.78 ± 0.07 Id % | – | – | – |
| Human Insulin: free human insulin, small globular protein, Mw 5808 Da | – | – | 14.6% | 37.4% | 36.9% |
